# Test results reported in patent US20260201008A1, “SECRETIN-DERIVED GLP1R SELECTIVE AGONISTS” (GUBRA A/S, priority 2023, published 2026).
# Numbered stars: 1 amine (or outer) side, 2 acyl side, 3 side chain; on linkers, the order of the positions; unused ones are H or OH. Square brackets hold non-standard residues; d marks the D form. Side chains are listed from the residue outwards. Ends that are not written are not given here. * marks the point of attachment. C20 diacid = O=C(O)CCCCCCCCCCCCCCCCCCC(=O)*; γGlu = O=C(O)[C@H](CCC(=O)[*:2])N[*:1]; AEEA = NCCOCCOCC(=O)O; Aib = CC(C)(N)C(=O)O
# B1: SEQ ID NO: 112 (peptide)
# peptide: H[Aib]EGTFTSDISYLLEGAALQRFIQWLV-NH2
# modifications: N-terminus assumed
# SMILES: CC[C@H](C)[C@H](NC(=O)[C@H](Cc1ccccc1)NC(=O)[C@H](CCCNC(=N)N)NC(=O)[C@H](CCC(N)=O)NC(=O)[C@H](CC(C)C)NC(=O)[C@H](C)NC(=O)[C@H](C)NC(=O)CNC(=O)[C@H](CCC(=O)O)NC(=O)[C@H](CC(C)C)NC(=O)[C@H](CC(C)C)NC(=O)[C@H](Cc1ccc(O)cc1)NC(=O)[C@H](CO)NC(=O)[C@@H](NC(=O)[C@H](CC(=O)O)NC(=O)[C@H](CO)NC(=O)[C@@H](NC(=O)[C@H](Cc1ccccc1)NC(=O)[C@@H](NC(=O)CNC(=O)[C@H](CCC(=O)O)NC(=O)C(C)(C)NC(=O)[C@@H](N)Cc1c[nH]cn1)[C@@H](C)O)[C@@H](C)O)[C@@H](C)CC)C(=O)N[C@@H](CCC(N)=O)C(=O)N[C@@H](Cc1c[nH]c2ccccc12)C(=O)N[C@@H](CC(C)C)C(=O)N[C@H](C(N)=O)C(C)C
# B2: SEQ ID NO: 110 (peptide)
# peptide: H[Aib]EGTFTSD[Aib]SVLLEGAALQRFIQWLV-NH2
# modifications: N-terminus assumed
# SMILES: CC[C@H](C)[C@H](NC(=O)[C@H](Cc1ccccc1)NC(=O)[C@H](CCCNC(=N)N)NC(=O)[C@H](CCC(N)=O)NC(=O)[C@H](CC(C)C)NC(=O)[C@H](C)NC(=O)[C@H](C)NC(=O)CNC(=O)[C@H](CCC(=O)O)NC(=O)[C@H](CC(C)C)NC(=O)[C@H](CC(C)C)NC(=O)[C@@H](NC(=O)[C@H](CO)NC(=O)C(C)(C)NC(=O)[C@H](CC(=O)O)NC(=O)[C@H](CO)NC(=O)[C@@H](NC(=O)[C@H](Cc1ccccc1)NC(=O)[C@@H](NC(=O)CNC(=O)[C@H](CCC(=O)O)NC(=O)C(C)(C)NC(=O)[C@@H](N)Cc1c[nH]cn1)[C@@H](C)O)[C@@H](C)O)C(C)C)C(=O)N[C@@H](CCC(N)=O)C(=O)N[C@@H](Cc1c[nH]c2ccccc12)C(=O)N[C@@H](CC(C)C)C(=O)N[C@H](C(N)=O)C(C)C
# B3: SEQ ID NO: 118 (peptide)
# peptide: H[Aib]EGTFTSDISWLLEGAALQRFIQWLV-NH2
# modifications: N-terminus assumed
# SMILES: CC[C@H](C)[C@H](NC(=O)[C@H](Cc1ccccc1)NC(=O)[C@H](CCCNC(=N)N)NC(=O)[C@H](CCC(N)=O)NC(=O)[C@H](CC(C)C)NC(=O)[C@H](C)NC(=O)[C@H](C)NC(=O)CNC(=O)[C@H](CCC(=O)O)NC(=O)[C@H](CC(C)C)NC(=O)[C@H](CC(C)C)NC(=O)[C@H](Cc1c[nH]c2ccccc12)NC(=O)[C@H](CO)NC(=O)[C@@H](NC(=O)[C@H](CC(=O)O)NC(=O)[C@H](CO)NC(=O)[C@@H](NC(=O)[C@H](Cc1ccccc1)NC(=O)[C@@H](NC(=O)CNC(=O)[C@H](CCC(=O)O)NC(=O)C(C)(C)NC(=O)[C@@H](N)Cc1c[nH]cn1)[C@@H](C)O)[C@@H](C)O)[C@@H](C)CC)C(=O)N[C@@H](CCC(N)=O)C(=O)N[C@@H](Cc1c[nH]c2ccccc12)C(=O)N[C@@H](CC(C)C)C(=O)N[C@H](C(N)=O)C(C)C
# B4: SEQ ID NO: 111 (peptide)
# peptide: H[Aib]EGTFTSD[Aib]SFLLEGAALQRFIQWLV-NH2
# modifications: N-terminus assumed
# SMILES: CC[C@H](C)[C@H](NC(=O)[C@H](Cc1ccccc1)NC(=O)[C@H](CCCNC(=N)N)NC(=O)[C@H](CCC(N)=O)NC(=O)[C@H](CC(C)C)NC(=O)[C@H](C)NC(=O)[C@H](C)NC(=O)CNC(=O)[C@H](CCC(=O)O)NC(=O)[C@H](CC(C)C)NC(=O)[C@H](CC(C)C)NC(=O)[C@H](Cc1ccccc1)NC(=O)[C@H](CO)NC(=O)C(C)(C)NC(=O)[C@H](CC(=O)O)NC(=O)[C@H](CO)NC(=O)[C@@H](NC(=O)[C@H](Cc1ccccc1)NC(=O)[C@@H](NC(=O)CNC(=O)[C@H](CCC(=O)O)NC(=O)C(C)(C)NC(=O)[C@@H](N)Cc1c[nH]cn1)[C@@H](C)O)[C@@H](C)O)C(=O)N[C@@H](CCC(N)=O)C(=O)N[C@@H](Cc1c[nH]c2ccccc12)C(=O)N[C@@H](CC(C)C)C(=O)N[C@H](C(N)=O)C(C)C
# B5: SEQ ID NO: 117 (peptide)
# peptide: H[Aib]EGTFTSDISFLLEGAALQRFIQWLV-NH2
# modifications: N-terminus assumed
# SMILES: CC[C@H](C)[C@H](NC(=O)[C@H](Cc1ccccc1)NC(=O)[C@H](CCCNC(=N)N)NC(=O)[C@H](CCC(N)=O)NC(=O)[C@H](CC(C)C)NC(=O)[C@H](C)NC(=O)[C@H](C)NC(=O)CNC(=O)[C@H](CCC(=O)O)NC(=O)[C@H](CC(C)C)NC(=O)[C@H](CC(C)C)NC(=O)[C@H](Cc1ccccc1)NC(=O)[C@H](CO)NC(=O)[C@@H](NC(=O)[C@H](CC(=O)O)NC(=O)[C@H](CO)NC(=O)[C@@H](NC(=O)[C@H](Cc1ccccc1)NC(=O)[C@@H](NC(=O)CNC(=O)[C@H](CCC(=O)O)NC(=O)C(C)(C)NC(=O)[C@@H](N)Cc1c[nH]cn1)[C@@H](C)O)[C@@H](C)O)[C@@H](C)CC)C(=O)N[C@@H](CCC(N)=O)C(=O)N[C@@H](Cc1c[nH]c2ccccc12)C(=O)N[C@@H](CC(C)C)C(=O)N[C@H](C(N)=O)C(C)C
# B6: SEQ ID NO: 113 (peptide)
# peptide: H[Aib]EGTFTSDIS[Aib]LLEGAALQRFIQWLV-NH2
# modifications: N-terminus assumed
# SMILES: CC[C@H](C)[C@H](NC(=O)[C@H](Cc1ccccc1)NC(=O)[C@H](CCCNC(=N)N)NC(=O)[C@H](CCC(N)=O)NC(=O)[C@H](CC(C)C)NC(=O)[C@H](C)NC(=O)[C@H](C)NC(=O)CNC(=O)[C@H](CCC(=O)O)NC(=O)[C@H](CC(C)C)NC(=O)[C@H](CC(C)C)NC(=O)C(C)(C)NC(=O)[C@H](CO)NC(=O)[C@@H](NC(=O)[C@H](CC(=O)O)NC(=O)[C@H](CO)NC(=O)[C@@H](NC(=O)[C@H](Cc1ccccc1)NC(=O)[C@@H](NC(=O)CNC(=O)[C@H](CCC(=O)O)NC(=O)C(C)(C)NC(=O)[C@@H](N)Cc1c[nH]cn1)[C@@H](C)O)[C@@H](C)O)[C@@H](C)CC)C(=O)N[C@@H](CCC(N)=O)C(=O)N[C@@H](Cc1c[nH]c2ccccc12)C(=O)N[C@@H](CC(C)C)C(=O)N[C@H](C(N)=O)C(C)C
# B7: SEQ ID NO: 119 (peptide)
# peptide: H[Aib]EGTFTSDISELLEGAALQRFIQWLV-NH2
# modifications: N-terminus assumed
# SMILES: CC[C@H](C)[C@H](NC(=O)[C@H](Cc1ccccc1)NC(=O)[C@H](CCCNC(=N)N)NC(=O)[C@H](CCC(N)=O)NC(=O)[C@H](CC(C)C)NC(=O)[C@H](C)NC(=O)[C@H](C)NC(=O)CNC(=O)[C@H](CCC(=O)O)NC(=O)[C@H](CC(C)C)NC(=O)[C@H](CC(C)C)NC(=O)[C@H](CCC(=O)O)NC(=O)[C@H](CO)NC(=O)[C@@H](NC(=O)[C@H](CC(=O)O)NC(=O)[C@H](CO)NC(=O)[C@@H](NC(=O)[C@H](Cc1ccccc1)NC(=O)[C@@H](NC(=O)CNC(=O)[C@H](CCC(=O)O)NC(=O)C(C)(C)NC(=O)[C@@H](N)Cc1c[nH]cn1)[C@@H](C)O)[C@@H](C)O)[C@@H](C)CC)C(=O)N[C@@H](CCC(N)=O)C(=O)N[C@@H](Cc1c[nH]c2ccccc12)C(=O)N[C@@H](CC(C)C)C(=O)N[C@H](C(N)=O)C(C)C
# B8: SEQ ID NO: 116 (peptide)
# peptide: H[Aib]EGTFTSDISVLLEGAALQRFIQWLV-NH2
# modifications: N-terminus assumed
# SMILES: CC[C@H](C)[C@H](NC(=O)[C@H](Cc1ccccc1)NC(=O)[C@H](CCCNC(=N)N)NC(=O)[C@H](CCC(N)=O)NC(=O)[C@H](CC(C)C)NC(=O)[C@H](C)NC(=O)[C@H](C)NC(=O)CNC(=O)[C@H](CCC(=O)O)NC(=O)[C@H](CC(C)C)NC(=O)[C@H](CC(C)C)NC(=O)[C@@H](NC(=O)[C@H](CO)NC(=O)[C@@H](NC(=O)[C@H](CC(=O)O)NC(=O)[C@H](CO)NC(=O)[C@@H](NC(=O)[C@H](Cc1ccccc1)NC(=O)[C@@H](NC(=O)CNC(=O)[C@H](CCC(=O)O)NC(=O)C(C)(C)NC(=O)[C@@H](N)Cc1c[nH]cn1)[C@@H](C)O)[C@@H](C)O)[C@@H](C)CC)C(C)C)C(=O)N[C@@H](CCC(N)=O)C(=O)N[C@@H](Cc1c[nH]c2ccccc12)C(=O)N[C@@H](CC(C)C)C(=O)N[C@H](C(N)=O)C(C)C
# B9: SEQ ID NO: 115 (peptide)
# peptide: H[Aib]EGTFTSDISRLLEGAALQRFIQWLV-NH2
# modifications: N-terminus assumed
# SMILES: CC[C@H](C)[C@H](NC(=O)[C@H](Cc1ccccc1)NC(=O)[C@H](CCCNC(=N)N)NC(=O)[C@H](CCC(N)=O)NC(=O)[C@H](CC(C)C)NC(=O)[C@H](C)NC(=O)[C@H](C)NC(=O)CNC(=O)[C@H](CCC(=O)O)NC(=O)[C@H](CC(C)C)NC(=O)[C@H](CC(C)C)NC(=O)[C@H](CCCNC(=N)N)NC(=O)[C@H](CO)NC(=O)[C@@H](NC(=O)[C@H](CC(=O)O)NC(=O)[C@H](CO)NC(=O)[C@@H](NC(=O)[C@H](Cc1ccccc1)NC(=O)[C@@H](NC(=O)CNC(=O)[C@H](CCC(=O)O)NC(=O)C(C)(C)NC(=O)[C@@H](N)Cc1c[nH]cn1)[C@@H](C)O)[C@@H](C)O)[C@@H](C)CC)C(=O)N[C@@H](CCC(N)=O)C(=O)N[C@@H](Cc1c[nH]c2ccccc12)C(=O)N[C@@H](CC(C)C)C(=O)N[C@H](C(N)=O)C(C)C
# Molecular target: human GLP-1 receptor (hGLP1R) (human, UniProt P43220 24-463)
# Test: cell-based or functional assay
row,pEC50 hGLPR1,Binder
1,10.8 -log M,B1
2,9.7 -log M,B2
3,10.7 -log M,H[Aib]EGTFTSDVSELKELAASQRFLEHLV-NH2 (not fully specified (residue 14)) [SEQ ID NO: 12]
4,10.2 -log M,B3
5,11 -log M,H[Aib]EGTFTSDISYLK([AEEA-AEEA-γGlu-C20 diacid])EEA[Aib]LQRFLEHLV-NH2 (also: K14 lipid also given as C18DA[γE][OEG][OEG]-) [SEQ ID NO: 114]
6,10.5 -log M,B4
7,11 -log M,B5
8,10.3 -log M,B6
9,10.6 -log M,B7
10,10.3 -log M,B8
11,10.4 -log M,B9

# Molecular target: human secretin receptor (hSCTR) (human, UniProt P47872 23-440)
# Sequence (P47872 23-440): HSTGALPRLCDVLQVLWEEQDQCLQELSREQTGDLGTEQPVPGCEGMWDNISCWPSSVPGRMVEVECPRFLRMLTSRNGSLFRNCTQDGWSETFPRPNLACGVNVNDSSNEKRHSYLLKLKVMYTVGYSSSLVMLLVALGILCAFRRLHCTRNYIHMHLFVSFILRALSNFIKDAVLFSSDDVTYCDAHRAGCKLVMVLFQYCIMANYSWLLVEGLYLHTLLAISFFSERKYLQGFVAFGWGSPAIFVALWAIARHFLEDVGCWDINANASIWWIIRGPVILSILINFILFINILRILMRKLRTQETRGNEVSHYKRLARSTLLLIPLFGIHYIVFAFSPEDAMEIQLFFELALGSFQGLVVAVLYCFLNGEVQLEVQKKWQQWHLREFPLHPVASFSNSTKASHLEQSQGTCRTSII
# Test: cell-based or functional assay
row,pEC50 hSCTR,Binder
1,5.6 -log M,B1
2,5.7 -log M,B2
3,6.2 -log M,H[Aib]EGTFTSDVSELKELAASQRFLEHLV-NH2 (not fully specified (residue 14)) [SEQ ID NO: 12]
4,7.1 -log M,B3
5,7.4 -log M,H[Aib]EGTFTSDISYLK([AEEA-AEEA-γGlu-C20 diacid])EEA[Aib]LQRFLEHLV-NH2 (also: K14 lipid also given as C18DA[γE][OEG][OEG]-) [SEQ ID NO: 114]
6,5.7 -log M,B4
7,6.7 -log M,B5
8,7.1 -log M,B6
9,7.3 -log M,B7
10,7.1 -log M,B8
11,7.8 -log M,B9
